One may read the Kd as the free concentration of one partner at which half of the binding sites on the other are occupied at equilibrium, for simple one-to-one binding. A higher Kd goes with weaker binding.

Kd data for one substance are collected here from paper PMC5733061.

Series [1] concerns ValFadR (Vibrio alginolyticus). The series is described as follows: SPR. Conditions: SPR: 20 mM Tris-HCl pH 7.5, 200 mM NaCl, 0.005% Tween 20, 25 C, protein 31.25-1000 nM; EMSA: binding buffer composition not given, room temperature, 5 pmol …. (In general: In EMSA bound probe runs differently from free probe, usually more slowly.)
Series [2] concerns EcFadR (Escherichia coli). The series is described as follows: SPR. Conditions: SPR: 20 mM Tris-HCl pH 7.5, 200 mM NaCl, 0.005% Tween 20, 25 C, protein 31.25-1000 nM; EMSA: binding buffer composition not given, room temperature, 5 pmol ….

As for fabA probe (SPR), the Kd in series [1] stood at 258 nM; in series [2], 559 nM.
